Test results as given in patent US20240148884A1 (Scripps Research, published 2024).
Read-outs that look alike come from different tables or passages of the source. Bridge positions count the residues as written; N and C are the ends. Square brackets hold non-standard residues; d marks the D form. Ends that are not written are not given here. C20L5A staple = not defined here; L5A(S) staple = not defined here; C20L5A = not defined here; L5A = not defined here; Aib = CC(C)(N)C(=O)O

Tests used:
Test in all cases: cell-based or functional assay
[1] = molecular target: T1, human GIPR (human, UniProt P48546 22-466)
T1 sequence (looked up): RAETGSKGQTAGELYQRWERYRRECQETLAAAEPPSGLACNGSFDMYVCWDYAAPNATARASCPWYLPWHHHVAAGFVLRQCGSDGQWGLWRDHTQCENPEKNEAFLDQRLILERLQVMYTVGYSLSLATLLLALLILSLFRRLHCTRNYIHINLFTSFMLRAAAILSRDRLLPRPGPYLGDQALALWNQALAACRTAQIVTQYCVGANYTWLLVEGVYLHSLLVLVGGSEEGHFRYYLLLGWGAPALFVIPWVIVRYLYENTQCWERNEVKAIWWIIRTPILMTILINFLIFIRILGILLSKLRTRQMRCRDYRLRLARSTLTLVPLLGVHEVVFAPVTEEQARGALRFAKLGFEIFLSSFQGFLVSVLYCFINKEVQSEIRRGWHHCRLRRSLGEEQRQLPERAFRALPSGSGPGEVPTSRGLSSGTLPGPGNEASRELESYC

[2] = molecular target: T1, human GIPR; remark: listed apart in the source
[3] = molecular target: cynomolgous monkey GLP1R (cynomolgous monkey)
[4] = molecular target: cynomolgous monkey GIPR (cynomolgous monkey)
[5] = molecular target: T1, human GIPR; remark: listed apart in the source
[6] = molecular target: T1, human GIPR; remark: listed apart in the source
[7] = molecular target: T2, human GLP-1R (human, UniProt P43220 24-463)
Target sequence in this assay (P43220 24-463): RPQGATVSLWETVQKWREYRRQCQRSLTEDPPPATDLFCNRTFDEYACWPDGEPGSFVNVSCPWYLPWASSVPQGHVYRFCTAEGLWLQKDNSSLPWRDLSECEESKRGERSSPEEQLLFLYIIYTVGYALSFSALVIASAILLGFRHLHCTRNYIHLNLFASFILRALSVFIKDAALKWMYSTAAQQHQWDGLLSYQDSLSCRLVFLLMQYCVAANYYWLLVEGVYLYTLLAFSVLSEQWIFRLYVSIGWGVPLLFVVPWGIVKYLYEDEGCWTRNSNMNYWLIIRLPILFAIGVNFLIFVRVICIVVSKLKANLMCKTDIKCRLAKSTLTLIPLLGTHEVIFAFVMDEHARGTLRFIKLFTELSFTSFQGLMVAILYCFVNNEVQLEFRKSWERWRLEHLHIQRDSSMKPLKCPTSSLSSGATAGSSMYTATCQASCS

[8] = molecular target: T2, human GLP-1R; remark: listed apart in the source
Target sequence in this assay (P43220 24-463): as above

[9] = molecular target: T1, human GIPR; remark: listed apart in the source
[10] = molecular target: T2, human GLP-1R; remark: listed apart in the source
Target sequence in this assay (P43220 24-463): as above

[11] = molecular target: T2, human GLP-1R; remark: listed apart in the source
[12] = molecular target: T3, mouse GLP1R (mouse, UniProt O35659 22-463, limits assumed)
T3 sequence (looked up): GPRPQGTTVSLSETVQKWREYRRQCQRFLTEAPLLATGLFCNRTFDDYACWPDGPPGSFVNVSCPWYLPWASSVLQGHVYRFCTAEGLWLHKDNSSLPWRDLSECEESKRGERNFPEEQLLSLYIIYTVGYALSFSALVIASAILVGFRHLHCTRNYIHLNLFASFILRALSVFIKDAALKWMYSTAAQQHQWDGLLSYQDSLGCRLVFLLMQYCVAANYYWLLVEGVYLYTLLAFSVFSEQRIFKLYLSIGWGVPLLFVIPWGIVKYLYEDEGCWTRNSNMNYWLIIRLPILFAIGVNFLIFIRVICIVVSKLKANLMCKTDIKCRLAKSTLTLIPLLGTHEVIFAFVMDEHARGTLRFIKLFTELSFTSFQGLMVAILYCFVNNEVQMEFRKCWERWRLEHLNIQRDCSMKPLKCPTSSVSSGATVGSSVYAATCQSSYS

B1: mCMV268 (27I, C(17-24)-C20L5A) (peptide)
peptide: YXEGTFTSDYSIYLDKCAAXEFVCWLIAGGPSSGAPPPS
modifications: Aib at positions 2 and 20; C-terminal amide (NH2); staple C20L5A attached at Cys17 and Cys24
[1]
  EC50 of receptor-mediated cAMP synthesis (02/19): 50 pM
[2]
  In Vitro Potency GIPR EC50 [nM], 10% FBS: 0.09 nM
  In Vitro Potency GIPR EC50 [nM], No Serum: 0.01 nM
[3]
  In Vitro Potency GLP1R EC50 [nM], Cyno: 0.22 nM
[4]
  In Vitro Potency GIPR EC50 [nM], Cyno: 0.16 nM

## Y[Aib]EGTFTSDYSIYCDKQAA[Aib]CFVNWLLAGGPSSGAPPPS-NH2 (linker 14-21 via C20L5A staple; reading uncertain) [C(14-21)-C20L5A]
[5]
  EC50 of receptor-mediated cAMP synthesis: 50 pM
[1]
  EC50 of receptor-mediated cAMP synthesis (average): 50 pM

## Y[Aib]EGTFTSDYSIYLDKCAQ[Aib]AFVCWLIAQGPSSGAPPPS-NH2 (linker 17-24 via C20L5A; reading uncertain) [19Q, 21A, 27I, 29Q, C(17-24) - C20L5A]
[6]
  EC50 of receptor-mediated cAMP synthesis: 20 pM

## Y[Aib]EGTYTSDYSIYLDKCAA[Aib]EFVCWLIAGGPSSGAPPPS-NH2 (linker 17-24 via C20L5A; reading uncertain) [6Y, 27I, C(17-24)-C20L5A]
[7]
  EC50 of receptor-mediated cAMP synthesis (02/19): 50 pM

B2: mCLZ715 (peptide)
peptide: YXEGTFTSDYSIYKDKQAAXKFVNWLLAGGPSSGAPPPS
modifications: Aib at positions 2 and 20; C-terminal amide (NH2); staple K5 attached at Lys14 and Lys21
[8]
  EC50 of receptor-mediated cAMP synthesis: 20 pM
[9]
  EC50 of receptor-mediated cAMP synthesis: 20 pM

B3: mCMC759 (C(14-21)-L5A) (peptide)
peptide: YXEGTFTSDYSIYCDKQAAXCFVNWLLAGGPSSGAPPPS
modifications: Aib at positions 2 and 20; C-terminal amide (NH2); staple L5A attached at Cys14 and Cys21
[5]
  EC50 of receptor-mediated cAMP synthesis: 30 pM
[6]
  EC50 of receptor-mediated cAMP synthesis: 30 pM

B4: mCMD307 (2050-K4) (peptide)
peptide: YXEGTFTSDYSIYKDKQAAXKFVNWLLAGGPSSGAPPPS
modifications: Aib at positions 2 and 20; C-terminal amide (NH2); staple K4 attached at Lys14 and Lys21
[8]
  EC50 of receptor-mediated cAMP synthesis: 10 pM
[9]
  EC50 of receptor-mediated cAMP synthesis: 20 pM
[10]
  EC50 of receptor-mediated cAMP synthesis: 30 pM
[5]
  EC50 of receptor-mediated cAMP synthesis: 10 pM
[11]
  EC50 of receptor-mediated cAMP synthesis: 30 pM
[6]
  EC50 of receptor-mediated cAMP synthesis: 10 pM
[7]
  EC50 of receptor-mediated cAMP synthesis (02/19): 10 pM
  EC50 of receptor-mediated cAMP synthesis (3/25): 10 pM
  EC50 of receptor-mediated cAMP synthesis (03/26): 10 pM
  EC50 of receptor-mediated cAMP synthesis (average): 10 pM
[1]
  EC50 of receptor-mediated cAMP synthesis (03/25): 10 pM
  EC50 of receptor-mediated cAMP synthesis (03/26): 10 pM
  EC50 of receptor-mediated cAMP synthesis (average): 20 pM

B5: mCMV266 (27I, C(14-21)-C20L5A) (peptide)
peptide: YXEGTFTSDYSIYCDKQAAXCFVNWLIAGGPSSGAPPPS
modifications: Aib at positions 2 and 20; C-terminal amide (NH2); staple C20L5A attached at Cys14 and Cys21
[10]
  EC50 of receptor-mediated cAMP synthesis: 50 pM
[7]
  EC50 of receptor-mediated cAMP synthesis (02/19): 30 pM
  EC50 of receptor-mediated cAMP synthesis (3/25): 50 pM
  EC50 of receptor-mediated cAMP synthesis (average): 50 pM

## Y[Aib]EGTFTSDYSIYLDKCAA[Aib]EFVCWLLAGGPSSGAPPPS-NH2 (linker 17-24 via C20L5A; reading uncertain) [C(17-24)-C20L5A]
[6]
  EC50 of receptor-mediated cAMP synthesis: 50 pM
[7]
  EC50 of receptor-mediated cAMP synthesis (3/25): 100 pM
  EC50 of receptor-mediated cAMP synthesis (03/26): 90 pM
  EC50 of receptor-mediated cAMP synthesis (average): 90 pM
[1]
  EC50 of receptor-mediated cAMP synthesis (03/25): 20 pM
  EC50 of receptor-mediated cAMP synthesis (03/26): 30 pM
  EC50 of receptor-mediated cAMP synthesis (average): 30 pM

## Y[Aib]EGTFTSDYSIYCDKQAA[Aib]CFVNWLIAGGPSSGAPPPS-NH2 (linker 14-21 via L5A; reading uncertain) [27I, C(14-21)-L5A]
[5]
  EC50 of receptor-mediated cAMP synthesis: 30 pM

## Y[Aib]EGTFTSDYSIYLDKCAA[Aib]EFVCWLIAGGPSSGAPPPS-NH2 (linker 17-24 via L5A(S) staple; reading uncertain) [mCMZ371 (C(17-24)-L5A(S))]
[2]
  In Vitro Potency GIPR EC50 [nM], No Serum: 0.01 nM
[12]
  In Vitro Potency GLP1R EC50 [nM], Mouse: 0.09 nM
[3]
  In Vitro Potency GLP1R EC50 [nM], Cyno: 0.11 nM

## Y[Aib]EGTFTSDYSIYLDKCAA[Aib]EFVCWLLAGGPSSGAPPPS-NH2 (linker 17-24 via L5A; reading uncertain) [C(17-24)-L5A]
[6]
  EC50 of receptor-mediated cAMP synthesis: 50 pM
